How the values were obtained:
[1] = target: CDTb heptamer (Clostridioides difficile) (UniProt O32739); test: cryo-EM structure
[2] = target: biotinylated CDTb oligomers (Clostridioides difficile) (UniProt O32739); test: BLI; […]; 20 mM HEPES pH 8.0, 100 mM NaCl, […]; 5 min association, 10 min dissociation; […]
[3] = target: biotinylated CDTb oligomers (Clostridioides difficile) (UniProt O32739); test: BLI; biotinylated CDTb oligomers saturated on streptavidin biosensors (Octet Red 96e); CDTa 200 to 0.032 nM in solution; 20 mM HEPES pH 8.0, 100 mM NaCl, blocked with 0.01% Igepal CA-630 and 0.1% BSA; 5 min association, 10 min dissociation; kON from the slope of kobs against concentration, KD from the signal at equilibrium (sigmoidal dose-response fit)

Molecule	stoichiometry N [1]	Kd [2]	kon [2]	Kd [3]	kon [3]
CDTb heptamer (from UniProt O32739 45-876) (complex)	7	–	–	–	–
CDTa_(67-463) (domain or fragment) KEWERKEAERIEQKLERSEKEALESYKKDSVEISKYSQTRNYFYDYQIEANSREKEYKELRNAISKNKIDKPMYVYYFESPEKFAFNKVIRTENQNEISLEKFNEFKETIQNKLFKQDGFKDISLYEPGKGDEKPTPLLMHLKLPRNTGMLPYTNTNNVSTLIEQGYSIKIDKIVRIVIDGKHYIKAEASVVSSLDFKDDVSKGDSWGKANYNDWSNKLTPNELADVNDYMRGGYTAINNYLISNGPVNNPNPELDSKITNIENALKREPIPTNLTVYRRSGPQEFGLTLTSPEYDFNKLENIDAFKSKWEGQALSYPNFISTSIGSVNMSAFAKRKIVLRITIPKGSPGAYLSAIPGYAGEYEVLLNHGSKFKINKIDSYKDGTITKLIVDATLIP	–	18.5 nM	400000 M⁻¹ s⁻¹	–	–
CDTa_(40-463) (domain or fragment) YSEKVCNTTYKAPIERPEDFLKDKEKAKEWERKEAERIEQKLERSEKEALESYKKDSVEISKYSQTRNYFYDYQIEANSREKEYKELRNAISKNKIDKPMYVYYFESPEKFAFNKVIRTENQNEISLEKFNEFKETIQNKLFKQDGFKDISLYEPGKGDEKPTPLLMHLKLPRNTGMLPYTNTNNVSTLIEQGYSIKIDKIVRIVIDGKHYIKAEASVVSSLDFKDDVSKGDSWGKANYNDWSNKLTPNELADVNDYMRGGYTAINNYLISNGPVNNPNPELDSKITNIENALKREPIPTNLTVYRRSGPQEFGLTLTSPEYDFNKLENIDAFKSKWEGQALSYPNFISTSIGSVNMSAFAKRKIVLRITIPKGSPGAYLSAIPGYAGEYEVLLNHGSKFKINKIDSYKDGTITKLIVDATLIP	–	–	–	9 nM	1.2e+06 M⁻¹ s⁻¹
CDTa_(60-463) (domain or fragment) LKDKEKAKEWERKEAERIEQKLERSEKEALESYKKDSVEISKYSQTRNYFYDYQIEANSREKEYKELRNAISKNKIDKPMYVYYFESPEKFAFNKVIRTENQNEISLEKFNEFKETIQNKLFKQDGFKDISLYEPGKGDEKPTPLLMHLKLPRNTGMLPYTNTNNVSTLIEQGYSIKIDKIVRIVIDGKHYIKAEASVVSSLDFKDDVSKGDSWGKANYNDWSNKLTPNELADVNDYMRGGYTAINNYLISNGPVNNPNPELDSKITNIENALKREPIPTNLTVYRRSGPQEFGLTLTSPEYDFNKLENIDAFKSKWEGQALSYPNFISTSIGSVNMSAFAKRKIVLRITIPKGSPGAYLSAIPGYAGEYEVLLNHGSKFKINKIDSYKDGTITKLIVDATLIP	–	–	–	9.5 nM	800000 M⁻¹ s⁻¹
CDTa_(50-463) (domain or fragment) KAPIERPEDFLKDKEKAKEWERKEAERIEQKLERSEKEALESYKKDSVEISKYSQTRNYFYDYQIEANSREKEYKELRNAISKNKIDKPMYVYYFESPEKFAFNKVIRTENQNEISLEKFNEFKETIQNKLFKQDGFKDISLYEPGKGDEKPTPLLMHLKLPRNTGMLPYTNTNNVSTLIEQGYSIKIDKIVRIVIDGKHYIKAEASVVSSLDFKDDVSKGDSWGKANYNDWSNKLTPNELADVNDYMRGGYTAINNYLISNGPVNNPNPELDSKITNIENALKREPIPTNLTVYRRSGPQEFGLTLTSPEYDFNKLENIDAFKSKWEGQALSYPNFISTSIGSVNMSAFAKRKIVLRITIPKGSPGAYLSAIPGYAGEYEVLLNHGSKFKINKIDSYKDGTITKLIVDATLIP	–	5.7 nM	1.4e+06 M⁻¹ s⁻¹	–	–

Reference: PMC11708034
